# Laboratory results: IntAct's records for PubMed 31515488
# B1: Mothers against decapentaplegic homolog 4 (Homo sapiens), Q13485 (parent)
# chain: MDNMSITNTPTSNDACLSIVHSLMCHRQGGESETFAKRAIESLVKKLKEKKDELDSLITAITTNGAHPSKCVTIQRTLDGRLQVAGRKGFPHVIYARLWRWPDLHKNELKHVKYCQYAFDLKCDSVCVNPYHYERVVSPGIDLSGLTLQSNAPSSMMVKDEYVHDFEGQPSLSTEGHSIQTIQHPPSNRASTETYSTPALLAPSESNATSTANFPNIPVASTSQPASILGGSHSEGLLQIASGPQPGQQQNGFTGQPATYHHNSTTTWTGSRTAPYTPNLPHHQNGHLQHHPPMPPHPGHYWPVHNELAFQPPISNHPAPEYWCSIAYFEMDVQVGETFKVPSSCPIVTVDGYVDPSGGDRFCLGQLSNVHRTEAIERARLHIGKGVQLECKGEGDVWVRCLSDHAVFVQSYYLDREAGRAPGDAVHKIYPSAYIKVFDLRQCHRQMQQQAATAQAAAAAQAAAVAGNIPGPGSVGGIAPAISLSAAAGIGVDDLRRLCILRMSFVKGWGPDYPRQSIKETPCWIEIHLHRALQLLDEVLHTMPIADPQPLD
# partner: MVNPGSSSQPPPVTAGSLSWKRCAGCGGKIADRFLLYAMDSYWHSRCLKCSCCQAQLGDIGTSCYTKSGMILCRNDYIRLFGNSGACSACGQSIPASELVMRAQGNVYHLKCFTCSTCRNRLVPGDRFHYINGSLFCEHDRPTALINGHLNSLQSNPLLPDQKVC
# B2: Spermatogenesis-associated protein 2 (Homo sapiens), Q9UM82 (parent)
# chain: MGKPSSMDTKFKDDLFRKYVQFHESKVDTTTSRQRPGSDECLRVAASTLLSLHKVDPFYRFRLIQFYEVVESSLRSLSSSSLRALHGAFSMLETVGINLFLYPWKKEFRSIKTYTGPFVYYVKSTLLEEDIRAILSCMGYTPELGTAYKLRELVETLQVKMVSFELFLAKVECEQMLEIHSQVKDKGYSELDIVSERKSSAEDVRGCSDALRRRAEGREHLTASMSRVALQKSASERAAKDYYKPRVTKPSRSVDAYDSYWESRKPPLKASLSLRKEPVATDVGDDLKDEIIRPSPSLLTMASSPHGSPDVLPPASPSNGPALLRGTYFSTQDDVDLYTDSEPRATYRRQDALRPDVWLLRNDAHSLYHKRSPPAKESALSKCQSCGLSCSSSLCQRCDSLLTCPPASKPSAFPSKASTHDSLAHGASLREKYPGQTQGLDRLPHLHSKSKPSTTPTSRCGFCNRPGATNTCTQCSKVSCDACLSAYHYDPCYKKSELHKFMPNNQLNYKSTQLSHLVYR
# partner: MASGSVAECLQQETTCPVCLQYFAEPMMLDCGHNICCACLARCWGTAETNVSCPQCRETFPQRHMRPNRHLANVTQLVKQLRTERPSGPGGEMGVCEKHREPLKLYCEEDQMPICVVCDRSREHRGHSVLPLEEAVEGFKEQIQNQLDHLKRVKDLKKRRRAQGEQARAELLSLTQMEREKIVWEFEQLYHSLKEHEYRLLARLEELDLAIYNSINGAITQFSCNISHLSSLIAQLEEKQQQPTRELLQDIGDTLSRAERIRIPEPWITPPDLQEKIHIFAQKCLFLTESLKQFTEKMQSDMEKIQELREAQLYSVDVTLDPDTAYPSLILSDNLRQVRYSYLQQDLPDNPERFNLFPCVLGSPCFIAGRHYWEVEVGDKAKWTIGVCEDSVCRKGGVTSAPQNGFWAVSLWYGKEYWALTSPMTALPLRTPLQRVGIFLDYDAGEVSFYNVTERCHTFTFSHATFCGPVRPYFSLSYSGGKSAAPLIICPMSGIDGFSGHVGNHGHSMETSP
# B3: Protein LDOC1 (Homo sapiens), O95751 (parent)
# chain: MVDELVLLLHALLMRHRALSIENSQLMEQLRLLVCERASLLRQVRPPSCPVPFPETFNGESSRLPEFIVQTASYMLVNENRFCNDAMKVAFLISLLTGEAEEWVVPYIEMDSPILGDYRAFLDEMKQCFGWDDDEDDDDEEEEDDY
# partner: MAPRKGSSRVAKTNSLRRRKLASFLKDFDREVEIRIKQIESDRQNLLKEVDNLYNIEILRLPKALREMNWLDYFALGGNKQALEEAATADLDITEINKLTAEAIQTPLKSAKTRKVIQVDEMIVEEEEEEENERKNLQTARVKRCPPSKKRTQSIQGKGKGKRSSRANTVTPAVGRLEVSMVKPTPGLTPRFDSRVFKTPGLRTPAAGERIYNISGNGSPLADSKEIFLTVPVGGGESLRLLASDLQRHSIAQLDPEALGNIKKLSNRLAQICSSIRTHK
# B4: AN1-type zinc finger protein 2B (Homo sapiens), Q8WV99 (parent)
# chain: MEFPDLGAHCSEPSCQRLDFLPLKCDACSGIFCADHVAYAQHHCGSAYQKDIQVPVCPLCNVPVPVARGEPPDRAVGEHIDRDCRSDPAQQKRKIFTNKCERAGCRQREMMKLTCERCSRNFCIKHRHPLDHDCSGEGHPTSRAGLAAISRAQAVASTSTVPSPSQTMPSCTSPSRATTRSPSWTAPPVIALQNGLSEDEALQRALEMSLAETKPQVPSCQEEEDLALAQALSASEAEYQRQQAQSRSSKPSNCSLC
# partner: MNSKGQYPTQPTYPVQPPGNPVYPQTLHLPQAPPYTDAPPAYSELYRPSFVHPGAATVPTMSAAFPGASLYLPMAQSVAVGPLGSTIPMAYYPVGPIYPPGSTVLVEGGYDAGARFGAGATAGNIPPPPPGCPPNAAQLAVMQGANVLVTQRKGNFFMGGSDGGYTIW
# B5: Huntingtin-interacting protein 1 (Homo sapiens), O00291 (parent)
# chain: MDRMASSMKQVPNPLPKVLSRRGVGAGLEAAERESFERTQTVSINKAINTQEVAVKEKHARTCILGTHHEKGAQTFWSVVNRLPLSSNAVLCWKFCHVFHKLLRDGHPNVLKDSLRYRNELSDMSRMWGHLSEGYGQLCSIYLKLLRTKMEYHTKNPRFPGNLQMSDRQLDEAGESDVNNFFQLTVEMFDYLECELNLFQTVFNSLDMSRSVSVTAAGQCRLAPLIQVILDCSHLYDYTVKLLFKLHSCLPADTLQGHRDRFMEQFTKLKDLFYRSSNLQYFKRLIQIPQLPENPPNFLRASALSEHISPVVVIPAEASSPDSEPVLEKDDLMDMDASQQNLFDNKFDDIFGSSFSSDPFNFNSQNGVNKDEKDHLIERLYREISGLKAQLENMKTESQRVVLQLKGHVSELEADLAEQQHLRQQAADDCEFLRAELDELRRQREDTEKAQRSLSEIERKAQANEQRYSKLKEKYSELVQNHADLLRKNAEVTKQVSMARQAQVDLEREKKELEDSLERISDQGQRKTQEQLEVLESLKQELATSQRELQVLQGSLETSAQSEANWAAEFAELEKERDSLVSGAAHREEELSALRKELQDTQLKLASTEESMCQLAKDQRKMLLVGSRKAAEQVIQDALNQLEEPPLISCAGSADHLLSTVTSISSCIEQLEKSWSQYLACPEDISGLLHSITLLAHLTSDAIAHGATTCLRAPPEPADSLTEACKQYGRETLAYLASLEEEGSLENADSTAMRNCLSKIKAIGEELLPRGLDIKQEELGDLVDKEMAATSAAIETATARIEEMLSKSRAGDTGVKLEVNERILGCCTSLMQAIQVLIVASKDLQREIVESGRGTASPKEFYAKNSRWTEGLISASKAVGWGATVMVDAADLVVQGRGKFEELMVCSHEIAASTAQLVAASKVKADKDSPNLAQLQQASRGVNQATAGVVASTISGKSQIEETDNMDFSSMTLTQIKRQEMDSQVRVLELENELQKERQKLGELRKKHYELAGVAEGWEEGTEASPPTLQEVVTEKE
# partner: B4 partner
# B6: Probable RNA-binding protein EIF1AD (Homo sapiens), Q8N9N8 (parent)
# chain: MSQATKRKHVVKEVLGEHIVPSDQQQIVRVLRTPGNNLHEVETAQGQRFLVSMPSKYRKNIWIKRGDFLIVDPIEEGEKVKAEISFVLCKDHVRSLQKEGFWPEAFSEVAEKHNNRNRQTQPELPAEPQLSGEESSSEDDSDLFVNTNRRQYHESEEESEEEEAA
# B7: Forkhead box protein R1 (Homo sapiens), Q6PIV2 (parent)
# chain: MGNELFLAFTTSHLPLAEQKLARYKLRIVKPPKLPLEKKPNPDKDGPDYEPNLWMWVNPNIVYPPGKLEVSGRRKREDLTSTLPSSQPPQKEEDASCSEAAGVESLSQSSSKRSPPRKRFAFSPSTWELTEEEEAEDQEDSSSMALPSPHKRAPLQSRRLRQASSQAGRLWSRPPLNYFHLIALALRNSSPCGLNVQQIYSFTRKHFPFFRTAPEGWKNTVRHNLCFRDSFEKVPVSMQGGASTRPRSCLWKLTEEGHRRFAEEARALASTRLESIQQCMSQPDVMPFLFDL
# partner: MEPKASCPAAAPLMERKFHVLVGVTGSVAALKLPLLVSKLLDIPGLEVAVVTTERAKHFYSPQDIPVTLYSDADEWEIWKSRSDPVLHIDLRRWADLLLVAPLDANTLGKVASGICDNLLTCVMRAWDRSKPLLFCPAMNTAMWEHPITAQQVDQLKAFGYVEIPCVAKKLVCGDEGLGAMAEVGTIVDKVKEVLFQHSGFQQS
# B8: Melanoma-associated antigen F1 (Homo sapiens), Q9HAY2 (parent)
# chain: MLQTPESRGLPVPQAEGEKDGGHDGETRAPTASQERPKEELGAGREEGAAEPALTRKGARALAAKALARRRAYRRLNRTVAELVQFLLVKDKKKSPITRSEMVKYVIGDLKILFPDIIARAAEHLRYVFGFELKQFDRKHHTYILINKLKPLEEEEEEDLGGDGPRLGLLMMILGLIYMRGNSAREAQVWEMLRRLGVQPSKYHFLFGYPKRLIMEDFVQQRYLSYRRVPHTNPPEYEFSWGPRSNLEISKMEVLGFVAKLHKKEPQHWPVQYREALADEADRARAKARAEASMRARASARAGIHLW
# B9: Syntenin-2 (Homo sapiens), Q9H190 (parent)
# chain: MSSLYPSLEDLKVDQAIQAQVRASPKMPALPVQATAISPPPVLYPNLAELENYMGLSLSSQEVQESLLQIPEGDSTAVSGPGPGQMVAPVTGYSLGVRRAEIKPGVREIHLCKDERGKTGLRLRKVDQGLFVQLVQANTPASLVGLRFGDQLLQIDGRDCAGWSSHKAHQVVKKASGDKIVVVVRDRPFQRTVTMHKDSMGHVGFVIKKGKIVSLVKGSSAARNGLLTNHYVCEVDGQNVIGLKDKKIMEILATAGNVVTLTIIPSVIYEHMVKKLPPVLLHHTMDHSIPDA
# partner: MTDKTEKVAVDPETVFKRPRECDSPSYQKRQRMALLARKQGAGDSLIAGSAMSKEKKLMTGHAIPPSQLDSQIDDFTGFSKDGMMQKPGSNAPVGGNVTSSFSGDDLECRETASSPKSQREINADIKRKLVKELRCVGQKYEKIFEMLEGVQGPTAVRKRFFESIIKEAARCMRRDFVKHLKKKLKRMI
# B10: Melanoma-associated antigen 8 (Homo sapiens), P43361 (parent)
# chain: MLLGQKSQRYKAEEGLQAQGEAPGLMDVQIPTAEEQKAASSSSTLIMGTLEEVTDSGSPSPPQSPEGASSSLTVTDSTLWSQSDEGSSSNEEEGPSTSPDPAHLESLFREALDEKVAELVRFLLRKYQIKEPVTKAEMLESVIKNYKNHFPDIFSKASECMQVIFGIDVKEVDPAGHSYILVTCLGLSYDGLLGDDQSTPKTGLLIIVLGMILMEGSRAPEEAIWEALSVMGLYDGREHSVYWKLRKLLTQEWVQENYLEYRQAPGSDPVRYEFLWGPRALAETSYVKVLEHVVRVNARVRISYPSLHEEALGEEKGV
# partner: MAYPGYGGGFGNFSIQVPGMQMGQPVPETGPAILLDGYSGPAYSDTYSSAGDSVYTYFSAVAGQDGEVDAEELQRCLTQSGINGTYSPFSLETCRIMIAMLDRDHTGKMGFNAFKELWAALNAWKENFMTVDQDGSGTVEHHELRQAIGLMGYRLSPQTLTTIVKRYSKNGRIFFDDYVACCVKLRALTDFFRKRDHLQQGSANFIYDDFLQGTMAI
# Variants of: B1
# Settings: with lmo4_human LMO4, P61968
row,effect of a mutation on the interaction,Variant
1,with no effect,Y353S
2,disrupting interaction strength,C324R
3,with no effect,N13S
4,with no effect,E330K
5,with no effect,G352R
6,with no effect,L533R
7,with no effect,R361C
8,disrupting interaction strength,V350D

# Variants of: B2
# Settings: with tri27_human TRIM27, P14373
row,effect of a mutation on the interaction,Variant
1,disrupting interaction strength,L443F

# Variants of: B3
# Settings: with borea_human CDCA8, Q53HL2
row,effect of a mutation on the interaction,Variant
1,disrupting interaction strength,L12H

# Variants of: B4
# Settings: with dazp2_human DAZAP2, Q15038
row,effect of a mutation on the interaction,Variant
1,with no effect,P71H

# Variants of: B5
# Settings: with dazp2_human DAZAP2, Q15038
row,effect of a mutation on the interaction,Variant
1,with no effect,M263K

# Variants of: B6
# Settings: with tbcd5_human TBC1D5, Q92609
# Chain of tbcd5_human TBC1D5, Q92609 (Q92609 whole entry): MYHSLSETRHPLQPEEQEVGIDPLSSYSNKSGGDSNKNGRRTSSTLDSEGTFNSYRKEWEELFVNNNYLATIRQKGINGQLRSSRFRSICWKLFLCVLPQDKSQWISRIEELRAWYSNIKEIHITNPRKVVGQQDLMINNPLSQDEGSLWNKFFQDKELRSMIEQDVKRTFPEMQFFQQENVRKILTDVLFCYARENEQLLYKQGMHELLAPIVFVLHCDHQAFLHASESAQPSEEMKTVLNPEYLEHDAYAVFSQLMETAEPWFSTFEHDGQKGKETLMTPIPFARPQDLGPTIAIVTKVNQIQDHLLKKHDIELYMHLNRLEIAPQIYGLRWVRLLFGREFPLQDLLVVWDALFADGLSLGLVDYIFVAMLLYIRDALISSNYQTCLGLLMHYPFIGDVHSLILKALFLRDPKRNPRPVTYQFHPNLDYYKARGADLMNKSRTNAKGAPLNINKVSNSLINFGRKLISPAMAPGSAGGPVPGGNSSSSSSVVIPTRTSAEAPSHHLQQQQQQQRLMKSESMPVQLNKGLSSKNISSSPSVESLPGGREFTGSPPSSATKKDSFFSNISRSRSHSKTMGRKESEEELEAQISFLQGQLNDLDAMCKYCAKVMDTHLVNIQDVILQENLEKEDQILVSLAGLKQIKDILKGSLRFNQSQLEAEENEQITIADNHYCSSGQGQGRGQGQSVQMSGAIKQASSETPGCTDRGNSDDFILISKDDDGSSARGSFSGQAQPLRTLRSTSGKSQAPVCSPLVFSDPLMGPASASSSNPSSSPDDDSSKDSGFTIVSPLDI
row,effect of a mutation on the interaction,Variant
1,with no effect,R48C

# Variants of: B7
# Settings: with coac_human PPCDC
row,effect of a mutation on the interaction,Variant
1,with no effect,A8T
2,disrupting interaction strength,E18G
3,with no effect,W127C

# Variants of: B8
# Settings: with mdfi_human MDFI
row,effect of a mutation on the interaction,Variant
1,with no effect,K93R

# Variants of: B9
# Settings: with ct457_human CT45A7, P0DMV0
row,effect of a mutation on the interaction,Variant
1,disrupting interaction strength,G225R
2,disrupting interaction strength,G242R
3,disrupting interaction strength,V182M

# Variants of: B10
# Settings: with gran_human GCA
row,effect of a mutation on the interaction,Variant
1,with no effect,R121H
2,with no effect,R9C
